Reference: patent US9243044B2, “Anticoagulant polypeptide and applications thereof” (GUANGDONG MEDICAL COLLEGE, priority 2011, dated 2016)
“Also recorded” adds a separate entry of the source. Marks after values point to notes of the source that are not given here.

What was measured:
normal human plasma = experiment: PT assay in normal human plasma; type: biochemical; conditions: for PT: normal human plasma
Summary of the method: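 Recombinant anticoagulant polypeptides, expressed in E. coli, at various concentrations were preincubated with normal human plasma 15 min at 37 °C. Prewarmed PT reagent was then added and clotting time followed by absorbance at 630 nm, triplicate per concentration.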

human fXIIa = biological target: T1, human fXIIa (Homo sapiens, UniProt P00748); experiment: Chromogenic assay, fXIIa; type: biochemical
T1 construct: Human coagulation factors IIa (thrombin), Xa, XIa, XIIa, EGR-fXa; purchased Haematologic Technologies Inc (United States)
T1 sequence (P00748 373-615 limits assumed): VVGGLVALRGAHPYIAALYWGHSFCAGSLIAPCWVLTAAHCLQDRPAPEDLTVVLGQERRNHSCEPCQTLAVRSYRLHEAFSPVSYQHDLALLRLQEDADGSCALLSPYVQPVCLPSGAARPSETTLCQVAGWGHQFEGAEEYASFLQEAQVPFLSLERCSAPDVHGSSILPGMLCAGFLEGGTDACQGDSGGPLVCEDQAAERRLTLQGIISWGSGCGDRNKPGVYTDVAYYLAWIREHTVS
T1 sequence (P00748 20-372 limits assumed): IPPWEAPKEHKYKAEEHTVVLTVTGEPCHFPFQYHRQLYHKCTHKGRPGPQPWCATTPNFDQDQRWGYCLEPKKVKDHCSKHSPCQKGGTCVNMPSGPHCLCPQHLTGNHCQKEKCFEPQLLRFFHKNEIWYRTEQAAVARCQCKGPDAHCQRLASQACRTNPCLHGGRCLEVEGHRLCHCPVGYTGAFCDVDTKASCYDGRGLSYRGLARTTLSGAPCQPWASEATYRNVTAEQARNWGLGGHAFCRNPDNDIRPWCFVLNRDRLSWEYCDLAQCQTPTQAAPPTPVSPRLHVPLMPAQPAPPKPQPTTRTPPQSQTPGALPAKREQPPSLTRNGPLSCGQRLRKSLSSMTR

BALb/c mice = experiment: Mouse tail bleeding time; type: in vivo; conditions: tail transected after 10 min
Method: After 10 min, the distal tip 1.5 mm of the mouse tail was transected and the blood oozed was soaked with filter paper very 30 seconds until the bleeding stops. The bleeding time was defined as the time elapsed from the tail transection to the stoppage of bleeding.

human fXIa = biological target: T2, human fXIa (Homo sapiens, UniProt P03951); experiment: Chromogenic assay, fXIa; type: biochemical
T2 construct: Human coagulation factors IIa (thrombin), Xa, XIa, XIIa, EGR-fXa; purchased Haematologic Technologies Inc (United States)
Summary of the method: (§1)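 Recombinant E. coli-expressed polypeptides incubated with 1 nM (final) fIIa, fXa or fXIa; fVIIa tested as fVIIa+TF (1 μM) with EGR-fXa (500 nM final), 15 min at 25 °C.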

SD rats [1] = experiment: Rat carotid artery thrombosis (FeCl3); type: in vivo; conditions: for Inhibition rate %: vs model group
Method: 50 SPF grade male SD rats (provided by the laboratory animal center of Guangdong Medical College, 300-350 g body weight) were randomly divided into sham operation group (except without the FeCl3, the remaining steps with other groups), model group, and rNAPTin-1 low dose (100 μg·kg^−1), middle dose (1 mg·kg^−1), high dose group (5 mg·kg^−1), 10 rats each group, respectively. These rats were anaesthetized with 10% chloral hydrate (250 mg/kg) by intraperitoneal injection. The right carotid artery was isolated by making a midline cervical incision followed by blunt dissection to expose a 1 cm segment of the vessel from the carotid sheath, and then a 0.6 cm wide sealing adhesive strip was inserted. After 5 mins of tail intravenous injection of drugs, separation spare the common carotid artery segment was ring wrapped by filter paper (1.0 cm×0.5 cm) soaked in 20% FeCl3 solution and sealed with strip seal. After 15 mins, the filter strips was remove. 40 mins later, the blood vessels ligation at both ends of filter paper was ligated. The vascular segment of the paper strip wrapped was precisely cut followed sucked excess blood in blood vessels with a clean filter paper, and wet weight including thrombotic vascular was accurately weighed, then weighed again after removing blood clots. The difference is the quality of the thrombus within the 0.5 cm long vessel segment. In sham operation, FeCl3 immersion filter strips were replaced with normal saline immersion filter strips.

SD rats [2] = experiment: Rat clotting time after i.v. injection, aPTT; type: in vivo; conditions: for Clotting time aPTT: rat plasma 2 min after injection
Method: 40 SPF grade male SD rats (provided by the laboratory animal center of Guangdong Medical College, 300-350 g body weight) were randomly divided into a line group, and rNAPTin-1 low-dose (100 μg·kg^−1), middle-dose (1 mg·kg^−1), high dose group (5 mg·kg^−1), 10 rats each group. 2 min after intravenous injection of various rNAPTin-1, blood was harvested from animal heart, and injected into an anticoagulant tube (3.8% sodium citrate). Animal plasma was separated by centrifugation (1500×g, 10 mins) and was used to measure aPTT and PT.

fVIIa/TF = biological target: T3, fVIIa/TF (Homo sapiens, UniProt P08709); experiment: Chromogenic assay, fVIIa/TF; type: biochemical
T3 construct: Recombinant fVIIa was products of Novo-Nordisk (Denmark); purchased Novo-Nordisk (Denmark) for fVIIa; Protgen (Beijing, China) for sTF; Haematologic Technologies Inc for EGR-fXa
Summary of the method: as §1

T3 sequence (P08709 61-212 limits assumed): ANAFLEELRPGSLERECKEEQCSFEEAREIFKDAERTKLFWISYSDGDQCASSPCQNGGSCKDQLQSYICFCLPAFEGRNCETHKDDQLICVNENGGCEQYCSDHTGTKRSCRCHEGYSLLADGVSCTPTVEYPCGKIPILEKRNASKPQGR
T3 sequence (P08709 213-466 limits assumed): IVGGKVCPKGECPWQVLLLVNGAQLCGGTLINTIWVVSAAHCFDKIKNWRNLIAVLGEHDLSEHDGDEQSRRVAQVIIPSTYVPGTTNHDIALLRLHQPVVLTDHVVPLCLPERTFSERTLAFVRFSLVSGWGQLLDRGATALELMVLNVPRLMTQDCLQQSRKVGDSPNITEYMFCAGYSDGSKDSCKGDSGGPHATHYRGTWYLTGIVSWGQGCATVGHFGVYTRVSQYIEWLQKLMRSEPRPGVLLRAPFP
T3 sequence (P13726 33-251 partner limits assumed): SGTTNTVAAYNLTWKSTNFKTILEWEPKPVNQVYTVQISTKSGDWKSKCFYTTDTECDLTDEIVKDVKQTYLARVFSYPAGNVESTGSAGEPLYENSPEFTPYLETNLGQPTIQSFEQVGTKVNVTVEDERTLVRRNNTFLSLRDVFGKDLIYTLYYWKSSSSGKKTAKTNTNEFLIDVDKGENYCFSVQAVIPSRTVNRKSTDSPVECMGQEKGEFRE
T2 sequence (P03951 19-387 limits assumed): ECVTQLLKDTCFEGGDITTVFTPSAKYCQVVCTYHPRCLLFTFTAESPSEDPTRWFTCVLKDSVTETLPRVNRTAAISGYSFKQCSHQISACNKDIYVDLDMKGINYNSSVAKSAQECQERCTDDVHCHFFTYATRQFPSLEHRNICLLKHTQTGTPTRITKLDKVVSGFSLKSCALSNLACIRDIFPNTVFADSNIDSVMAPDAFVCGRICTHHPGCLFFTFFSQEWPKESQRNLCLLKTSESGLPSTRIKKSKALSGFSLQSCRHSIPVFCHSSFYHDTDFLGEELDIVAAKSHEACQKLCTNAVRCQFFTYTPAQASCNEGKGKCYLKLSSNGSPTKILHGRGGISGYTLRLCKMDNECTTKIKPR
T2 sequence (P03951 388-625 limits assumed): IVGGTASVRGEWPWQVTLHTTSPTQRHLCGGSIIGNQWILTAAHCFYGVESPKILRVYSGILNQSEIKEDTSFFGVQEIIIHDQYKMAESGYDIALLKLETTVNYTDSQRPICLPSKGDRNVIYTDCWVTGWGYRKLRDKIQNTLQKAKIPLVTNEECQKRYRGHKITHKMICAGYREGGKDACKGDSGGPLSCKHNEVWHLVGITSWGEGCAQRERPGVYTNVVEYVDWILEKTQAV

B1: NAPTin-1 (protein)
chain: NPSCGENERHDECSRKECDPKCKYDGTEEKDDEKPVVCLTRVCYGDCICRDGFLRNKNGACVKAEDCELD
modifications: Sequence derived from Ancylostoma caninum or Synthetic
prolongation of PT (in words) (normal human plasma; 100 nM and 500 nM): couldn't prolong PT | PT (normal human plasma; 100 nM): 12.4 ± 0.9 s | PT (normal human plasma; 500 nM): 12.1 ± 0.4 s | effect on fXIIa activity (in words) (human fXIIa; 100 nM): without affecting | effect on fXIIa activity (in words) (human fXIIa; 200 nM): without affecting | Bleeding time (BALb/c mice; 100 μg·kg^−1 tail vein): 8.34 ± 1.7 min | Bleeding time (BALb/c mice; 1 mg·kg^−1 tail vein): 8.30 ± 2.1 min | Bleeding time (BALb/c mice; 5 mg·kg^−1 tail vein): 8.28 ± 2.3 min | inhibition of the activity of fXIa (human fXIa; 100 nM): more than 90% | inhibition of the activity of fXIa (in words) (human fXIa; 200 nM): almost completely inhibited | wet weight of thrombus (SD rats [1]; 100 μg·kg^−1 i.v.): 1.5 ± 0.2 mg | Inhibition rate % (SD rats [1]; 100 μg·kg^−1 i.v.): 66.7% | wet weight of thrombus (SD rats [1]; 1 mg·kg^−1 i.v.): 0.5 ± 0.3 mg | Inhibition rate % (SD rats [1]; 1 mg·kg^−1 i.v.): 88.9% | wet weight of thrombus (mg) (SD rats [1]; 5 mg·kg^−1 i.v.): 0* mg | Inhibition rate % (SD rats [1]; 5 mg·kg^−1 i.v.): 100% | Clotting time aPTT (SD rats [2]; 0.1 mg/kg i.v.): 23.5 ± 2.1 | Clotting time aPTT (SD rats [2]; 1.0 mg/kg i.v.): 56.3 ± 5.1 | Clotting time aPTT (SD rats [2]; 5.0 mg/kg i.v.): 136.7 ± 35.5 | effect on rat aPTT (in words) (SD rats [2]; 0.1-5 mg/kg i.v.): prolonged significantly aPTT | effect on fVIIa/TF activity (in words) (fVIIa/TF; 100 nM): without affecting; also recorded: no significant inhibitory activity | effect on fVIIa/TF activity (in words) (fVIIa/TF; 200 nM): without affecting
